The Human Domainome abundance scans (Beltran et al. 2025)
± gives the uncertainty stated by the source.

B1: Transcription elongation factor A N-terminal and central domain-containing protein, residues 30 to 77; numbered along this chain, Q8N8B7 (parent)
chain: LTELETIYVTKEHLQETDVVRAVYRVLKNCPSVALKKKAKCLLSKWKA
B2: Chromodomain-helicase-DNA-binding protein 4, residues 365 to 417; numbered along this chain, Q14839 (parent)
chain: YETDHQDYCEVCQQGGEIILCDTCPRAYHMVCLDPDMEKAPEGKWSCPHCEKE

Variants of: B1
Assay: abundance fitness (aPCA) (normalised: wild type 0, dead -1); higher = more abundant; growth selection in yeast, the domain comes from the species named
Conditions: Homo sapiens

Abundance fitness, by site and new letter:
S44: H 0.079 ± 0.25, I -0.695 ± 0.28, K -0.312 ± 0.21, M -0.148 ± 0.15, N -0.351 ± 0.15, P -0.891 ± 0.14, R 0.021 ± 0.086, V -0.48 ± 0.11, W -0.237 ± 0.13, Y -0.398 ± 0.21
K45: A -0.57 ± 0.11, C -0.352 ± 0.14, D -0.443 ± 0.16, E -0.748 ± 0.13, F 0.204 ± 0.27, G -0.894 ± 0.12, I -1.01 ± 0.4, L -0.513 ± 0.13, M -0.63 ± 0.18, N -0.361 ± 0.14, P -0.667 ± 0.42, Q -0.782 ± 0.23, R -0.123 ± 0.11, S -0.55 ± 0.11, T -0.656 ± 0.18, V -0.918 ± 0.17, Y -0.1 ± 0.21
W46: A 0.105 ± 0.097, C -0.313 ± 0.12, D -1.05 ± 0.21, E -1.03 ± 0.22, G -1.07 ± 0.14, I 0.258 ± 0.17, L 0.022 ± 0.079, N -0.823 ± 0.34, P -0.765 ± 0.23, Q -0.792 ± 0.23, R -0.758 ± 0.12, S -0.96 ± 0.14, T -0.705 ± 0.18, V -0.035 ± 0.094, Y -0.504 ± 0.18
K47: A -0.739 ± 0.17, D -0.762 ± 0.2, E -1.08 ± 0.35, F 0.101 ± 0.44, G -0.605 ± 0.12, H -0.268 ± 0.16, I -0.47 ± 0.23, L -0.508 ± 0.13, M -0.252 ± 0.14, N -0.625 ± 0.22, P -0.334 ± 0.27, Q -0.46 ± 0.2, R -0.431 ± 0.11, S -0.967 ± 0.19, T -0.351 ± 0.22, V 0.019 ± 0.099, W 0.025 ± 0.13
A48: H -0.331 ± 0.23, L -1.22 ± 0.37, P -0.565 ± 0.22, R 0.034 ± 0.37, T 0.162 ± 0.24, V -0.62 ± 0.18, W -0.469 ± 0.26

Variants of: B2
Assay: as above
Conditions: Homo sapiens

Abundance fitness: each site, then its substitutions
Y1: A 0.534 ± 0.26, C 0.19 ± 0.22, D -0.863 ± 0.28, F 0.069 ± 0.47, K 0.593 ± 0.38, L -0.316 ± 0.31, M 0.64 ± 0.43, N -0.028 ± 0.25, R 0.048 ± 0.45, S 0.108 ± 0.35, V 0.348 ± 0.26, W 0.441 ± 0.17
E2: A -0.143 ± 0.12, C 0.484 ± 0.24, D 0.033 ± 0.15, G 0.102 ± 0.1, H 0.347 ± 0.29, I 0.176 ± 0.2, K 0.077 ± 0.29, L 0.386 ± 0.13, M 0.621 ± 0.28, P 0.263 ± 0.2, Q 0.654 ± 0.23, R 0.406 ± 0.15, S 0.425 ± 0.16, T 0.349 ± 0.23, W 0.297 ± 0.2, Y 0.426 ± 0.18
T3: A -0.396 ± 0.14, C 0.124 ± 0.19, D -0.022 ± 0.43, E 0.074 ± 0.15, F 0.059 ± 0.16, G 0.13 ± 0.1, H -0.461 ± 0.29, I 0.111 ± 0.17, K 0.205 ± 0.16, L 0.141 ± 0.1, M 0.19 ± 0.18, N -0.106 ± 0.2, P -0.225 ± 0.16, Q -0.29 ± 0.26, R 0.024 ± 0.1, S 0.185 ± 0.11, V 0.103 ± 0.12, W -0.182 ± 0.14, Y 0.034 ± 0.3
D4: A -0.066 ± 0.093, C 0.071 ± 0.1, E 0.1 ± 0.11, F -0.031 ± 0.16, G 0.008 ± 0.077, H 0.304 ± 0.29, I -0.089 ± 0.13, K 0.23 ± 0.17, L -0.003 ± 0.091, M 0.299 ± 0.13, N -0.114 ± 0.17, Q 0.114 ± 0.14, S -0.127 ± 0.11, T -0.168 ± 0.11, W -0.173 ± 0.1, Y 0.004 ± 0.23
H5: A 0.283 ± 0.098, C -0.083 ± 0.27, D -0.801 ± 0.18, F -0.059 ± 0.19, G 0.158 ± 0.081, I 0.092 ± 0.15, K -0.044 ± 0.15, M 0.41 ± 0.12, N 0.12 ± 0.15, P 0.19 ± 0.13, Q -0.111 ± 0.15, R 0.193 ± 0.086, S 0.224 ± 0.099, T 0.349 ± 0.13, V 0.208 ± 0.088, W -0.23 ± 0.12
Q6: A -0.269 ± 0.26, C -0.212 ± 0.12, E -0.306 ± 0.36, F -0.606 ± 0.15, G -0.384 ± 0.13, H -0.359 ± 0.31, L -0.239 ± 0.096, P -0.161 ± 0.2, S 0.026 ± 0.12, V -0.347 ± 0.095, W -0.347 ± 0.097, Y -0.243 ± 0.2
D7: A -0.095 ± 0.1, C -1.06 ± 0.33, E 0.015 ± 0.11, F -0.544 ± 0.26, G 0 ± 0.092, H -0.51 ± 0.48, I -0.458 ± 0.22, K -0.075 ± 0.2, M -0.037 ± 0.19, N -0.183 ± 0.11
